Values joined by “and” are separate entries in the source; they are usually repeats but may differ in a detail not shown here. Equal values may be shown once.
Key:
[1] = molecular target: T1, HER2 ECD (human, UniProt P04626 23-652); assay: SPR Biacore 8K, captured Ab, HER2 ECD analyte; printed mean
T1 construct: extracellular domain; also called HER2/neu; ErbB2

[2] = molecular target: T1, HER2 ECD; assay: SPR Biacore 8K, captured Ab, HER2 ECD analyte; replicate 1
[3] = molecular target: T1, HER2 ECD; assay: SPR Biacore 8K, captured Ab, HER2 ECD analyte; replicate 2

B1: HER-78 anti-HER2 bispecific antibody molecule (bispecific antibody)
chain 1: QVQLVQSGAEVKKPGASVKVSCKASGYSFTGYFINWVREAPGQGLEWMGHISSSYATSTYNQKFQGRVTFTVDTSSSTAYMELSSLRSEDTAVYYCVRSGNYEEYAMDYWGQGTLVTVSS
chain 2: not shown
B1 was tested, and the Kd [1] was 440 pM and 436 pM, the koff [1] was 7.28e-05 s⁻¹ and the kon [1] was 164000 M⁻¹ s⁻¹. For the same binder, the Kd [2] was 540 pM and 544 pM, the koff [2] was 7.53e-05 s⁻¹ and the kon [2] was 138000 M⁻¹ s⁻¹. The Kd [3] was 570 pM, the koff [3] was 9.89e-05 s⁻¹ and the kon [3] was 174000 M⁻¹ s⁻¹.

From US20250223376A1 (VOYAGER THERAPEUTICS, published 2025)
